The target of this test is GFP-60mer nanocages. Nature of the test: absorbance at 490 nm and 570 nm of the complex purified by size exclusion chromatography. On the technique in general: In gel filtration, larger molecules generally elute earlier.

With “GBP-mScarlet, purified fusion of the anti-GFP nanobody and mScarlet (VHH)”, the ratio GFP/mScarlet in the purified complex came to 0.95.

These data come from patent publication US20230287402A1.
